Measurements: patent US5770720
Blank lines part the entries; values can stand above or below the substance they belong to.

What was measured:
[1] = target: LexADB/lamin C hybrid (Escherichia coli (strain K12)); test: yeast two-hybrid, LexA DNA binding domain fusion against Gal4 activation domain vector alone
[2] = target: LexADB/WT-N (LexA DNA binding domain fused to residues 85-179 of human WT1) (human) (UniProt P19544); test: as above
[3] = target: LexADB/WT-INS (containing residues 250-266 of WT1) (human) (UniProt P19544); test: as above
[4] = target: LexADB/lamin C hybrid (Escherichia coli (strain K12)); test: yeast two-hybrid, LexA DNA binding domain fusion against Gal4 activation domain fusion
[5] = target: LexADB/WT-N (LexA DNA binding domain fused to residues 85-179 of human WT1) (human) (UniProt P19544); test: as above
[6] = target: WT1, Wilm's tumor suppressor gene product (full length) (human) (UniProt P19544)

Sequence of hUBC-9, human ubiquitin conjugating enzyme (P63279 whole entry): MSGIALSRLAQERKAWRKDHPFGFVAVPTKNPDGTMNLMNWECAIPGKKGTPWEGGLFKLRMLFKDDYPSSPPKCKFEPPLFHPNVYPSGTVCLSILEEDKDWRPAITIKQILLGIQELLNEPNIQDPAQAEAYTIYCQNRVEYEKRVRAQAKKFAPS
Sequence of hUBC-9 fused with the Gal4 activation domain (P63279 whole entry, the tested form may be a part): as the sequence (P63279 whole entry) above

- β-Galactosidase activity [1]: 0.3 units
- β-Galactosidase activity [2]: 0.3 units
- β-Galactosidase activity [3]: 0.2 units
Substance: Gal4 activation domain vector alone (from UniProt P04386)

- β-Galactosidase activity [4]: 1.5 units
- β-Galactosidase activity [5]: 57.9 units
Substance: hUBC-9 fused with the Gal4 activation domain

- relative CAT activity (PDGF A-chain promoter driven CAT reporter, 293 cells) (% relative activity) [6]: 2
Substance: hUBC-9, human ubiquitin conjugating enzyme
